What was measured:
[1] = biological target: soluble fragment of human IgE receptor (FcεRI) α chain (human) (UniProt P12319); assay: SPR (BIAcore), purified scFv
[2] = biological target: soluble fragment of human IgE receptor (FcεRI) α chain (human) (UniProt P12319); assay: competition ELISA: inhibition of binding of biotin-labeled FcεRI α chain (55 ng/mL) to immobilized human IgE
[3] = biological target: soluble fragment of human IgE receptor (FcεRI) α chain (human) (UniProt P12319); assay: competition ELISA: inhibition of binding of biotin-labeled FcεRI α chain (55 ng/mL) to immobilized human IgE, at scFv >= 100 µg/ml

Sequence of UniProt P12319 (P12319 26-197 limits assumed): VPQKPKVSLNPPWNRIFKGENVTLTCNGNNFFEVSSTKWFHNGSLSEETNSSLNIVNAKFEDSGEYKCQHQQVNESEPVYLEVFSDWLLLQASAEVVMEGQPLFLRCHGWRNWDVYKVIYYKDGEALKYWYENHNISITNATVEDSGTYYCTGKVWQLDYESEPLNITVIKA

- Kd [1]: 5.8 nM
- scFv concentration at which inhibition is seen [2]: > 0.1 µg/mL
- inhibition rate [3]: > 90%
B1: αFcR51 scFv (human anti-human FcεRI α chain single-chain Fv clone) (scFv, part only; not given: VH-VL linker and E tag, V domains shown, not shown: another chain or arm of the molecule; small tags and cut ends)
VH: QVQLQEWGGGLVQPGGSLRLSCAASGFTVSSNYMSWVRQAPGKGLEWVSVIYRGGSGDNTYYAGSVKGRFTISRDNSKNTVYLQMNSLRAEDTAVYYCVRSSDVGYGILRGYMDVWGKGTTVTVSS
VL: HVILTQPPSVSVSPGQTARIPCSGQDLTNKYVSWYQLQSGQSPALVIYEDSKRPSGIPERFSGSNSGDTATLTITGTQAADEADFFCQAYDTNGWVFGAGTKLTVL
